Experimental data as given in publication PMC6063439.

Experiment: immunoblot of HEK293 lysate and culture medium
Details: glycan lost; control: wild-type FMOD

B1: fibromodulin (FMOD): FMODΔGAG (protein)
parent chain: MQWTSLLLLAGLFSLSQAQYEDDPHWWFHYLRSQQSTYYDPYDPYPYETYEPYPYGVDEGPAYTYGSPSPPDPRDCPQECDCPPNFPTAMYCDNRNLKYLPFVPSRMKYVYFQNNQITSIQEGVFDNATGLLWIALHGNQITSDKVGRKVFSKLRHLERLYLDHNNLTRMPGPLPRSLRELHLDHNQISRVPNNALEGLENLTALYLQHNEIQEVGSSMRGLRSLILLDLSYNHLRKVPDGLPSALEQLYMEHNNVYTVPDSYFRGAPKLLYVRLSHNSLTNNGLASNTFNSSSLLELDLSYNQLQKIPPVNTNLENLYLQGNRINEFSISSFCTVVDVVNFSKLQVLRLDGNEIKRSAMPADAPLCLRLASLIEI
- expression_or_secretion: abolishes
